Laboratory results from patent US20190211104A1 (Merck KGaA, published 2019).

Molecular target: T1, carboxyterminal peptide of PD-L1 (SEQ ID NO: 1, RLRKGRMMDVKKCGIQDTNSKKQSDTHLEET) (human)
T1 construct: The immunogen was the KLH-coupled peptide; also called immunogen
T1 peptide: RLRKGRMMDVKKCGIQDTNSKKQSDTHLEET
Experiment: ELISA, wells coated with the peptide immunogen

B1: inventive antibody clone MKP1A07310 (rabbit monoclonal recombinant anti-PD-L1 antibody) (antibody, V domains shown)
VH: QEQLVESGGGLVTPGGSLTLTCTVSTIDLSTFAISWVRQAPGKGLEWIGTINTDLTTYYVNWAKGRFTISKTSSTTVDLKMTGLTIEDTATYFCARKLFGNGNVWGPGTLVTVSS
VL: QVLTQTPSPVSASVGSTVTINCQASQSLHRNNYLSWFQQKPGQPPKQLIYQASTLASGVSSRFSGSGSGTQFTLTISDVVCDDAATYYCLGGVSGGPYPFGGGTEVVVKG
notes: Rabbit monoclonal, produced as recombinant antibody in HEK-293 cells; VH 110, VL 111) and calls clone MKP1A07310 'the inventive antibody'; also called MKP1A7310; MKP-1A-73-10
binding result: binds
